{"source": "paper PMC7954794", "about": "“Protein context shapes the specificity of SH3 domain-mediated interactions in vivo” (Nature Communications, 2021)", "molecules": {"B1": {"name": "ABP1 S45S (protein, UniProt P15891 2-592, looked up)", "Actin-binding protein": "ALEPIDYTTHSREIDAEYLKIVRGSDPDTTWLIISPNAKKEYEPESTGSSFHDFLQLFDETKVQYGLARVSPPGSDVEKIIIIGWCPDSAPLKTRASFAANFAAVANNLFKGYHVQVTARDEDDLDENELLMKISNAAGARYSIQTSSKQQGKASTPPVKKSFTPSKSPAPVSKKEPVKTPSPAPAAKISSRVNDNNDDDDWNEPELKERDFDQAPLKPNQSSYKPIGKIDLQKVIAEEKAKEDPRLVQKPTAAGSKIDPSSDIANLKNESKLKRDSEFNSFLGTTKPPSMTESSLKNDDDKVIKGFRNEKSPAQLWAERKAKQNSGNAETKAEAPKPEVPEDEPEGEPDVKDLKSKFEGLAASEKEEEEMENKFAPPPKKSEPTIISPKPFSKPQEPVKAEEAEQPKTDYKKIGNPLPGMHIEADNEEEPEENDDDWDDDEDEAAQPPLPSRNVASGAPVQKEEPEQEEIAPSLPSRNSIPAPKQEEAPEQAPEEEIEEEAEEAAPQLPSRSSAAPPPPPRRATPEKKPKENPWATAEYDYDAAEDNELTFVENDKIINIEFVDDDWWLGELEKDGSKGLFPSNYVSLGN", "modifications": "synonymous S45S codon change in SH3 domain"}, "B2": {"name": "E13E (protein, UniProt P15891 2-592, looked up)", "Actin-binding protein": "B1 Actin-binding protein", "modifications": "synonymous codon change E13E in SH3"}, "B3": {"name": "Abp1SH3 in Abp1: Abp1 with its own SH3 reintroduced by editing (control) (protein)", "chain": "MALEPIDYTTHSREIDAEYLKIVRGSDPDTTWLIISPNAKKEYEPESTGSSFHDFLQLFDETKVQYGLARVSPPGSDVEKIIIIGWCPDSAPLKTRASFAANFAAVANNLFKGYHVQVTARDEDDLDENELLMKISNAAGARYSIQTSSKQQGKASTPPVKKSFTPSKSPAPVSKKEPVKTPSPAPAAKISSRVNDNNDDDDWNEPELKERDFDQAPLKPNQSSYKPIGKIDLQKVIAEEKAKEDPRLVQKPTAAGSKIDPSSDIANLKNESKLKRDSEFNSFLGTTKPPSMTESSLKNDDDKVIKGFRNEKSPAQLWAERKAKQNSGNAETKAEAPKPEVPEDEPEGEPDVKDLKSKFEGLAASEKEEEEMENKFAPPPKKSEPTIISPKPFSKPQEPVKAEEAEQPKTDYKKIGNPLPGMHIEADNEEEPEENDDDWDDDEDEAAQPPLPSRNVASGAPVQKEEPEQEEIAPSLPSRNSIPAPKQEEAPEQAPEEEIEEEAEEAAPQLPSRSSAAPPPPPRRATPEKKPKENPWATAEYDYDAAEDNELTFVENDKIINIEFVDDDWWLGELEKDGSKGLFPSNYVSLGN", "modifications": "left off: DHFR F[1,2], C-terminal, kept | FLAG, C-terminal, kept"}}, "type_in_all_cases": "cell-based, Saccharomyces cerevisiae", "key": {"Hua2 and Lsb3": {"test_system": "Hua2 and Lsb3", "test": "Deep mutational scanning of Abp1 SH3, quadrant by Hua2 and Lsb3 DMS scores"}, "Lsb3": {"test_system": "Lsb3", "test": "Deep mutational scanning of Abp1 SH3, Abp1-Lsb3 DHFR-PCA (DMS score)", "outline": "(§1)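 Yeast carrying single-codon Abp1 SH3 variants at the endogenous locus, each paired with a Hua2 or Lsb3 DHFR-fragment partner; binding scored by growth over two successive 72 h PCA selections at 30 °C. Illumina counts before and after selection give the DMS score; independent duplicates.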"}, "Hua2 [1]": {"test_system": "Hua2", "test": "Deep mutational scanning of Abp1 SH3, Abp1-Hua2 DHFR-PCA (DMS score)", "outline": "as §1"}, "Abp1 (1xFLAG)": {"test_system": "Abp1 (1xFLAG)", "test": "Western blot expression level of Abp1 SH3 mutants (Fig. S3C-D)", "description": "Precultures of yeast cells expressing baits fused with the DHFR F[1,2]-FLAG were grown overnight at 30 °C with agitation in synthetic complete medium. The next day, cells were expanded in synthetic complete medium to reach their exponential phase (OD600 of around 1.0), pelleted, and frozen at −80 °C. The equivalent of fifty OD600 of cells was resuspended in ice-cold yeast lysis buffer (10 mM Tris-HCl pH 7.4, 150 mM NaCl, 0.5 mM EDTA (Millipore Sigma), 1% Triton X-100 (Millipore Sigma), and one cOmplete Mini Protease Inhibitor Cocktail (Millipore Sigma) per 10 mL) with […] glass beads (Millipore Sigma) and disrupted at 4 °C by 10 cycles of 2 min vortexing and 2 min cooldown. The equivalent of […] of lysed cells was used for the immunoprecipitation of the bait proteins using FLAG-M2 agarose beads (Millipore Sigma). The beads were incubated with the cell lysates for 120 min at 4 °C with a slow rotation, followed by three washes with the yeast lysis buffer.\nProtein extracts and affinity-purified baits from yeast and human lysed cells were migrated on 10% polyacrylamide gels. The separated proteins were then transferred to nitrocellulose membranes. Validation of correct protein loading was done with ponceau staining of the membranes. Before the primary antibody incubations, membranes were blocked in 5% milk. Protein signals were detected on an Amersham Imager 600RGB (GE Healthcare) following the incubation of the membranes with the appropriate HRP-conjugated secondary antibodies and the Clarity Western ECL Substrate (Bio-Rad). The antibodies used in this study are M2-HRP (A8592, Sigma, 1/50,000), rabbit anti-FLAG (F7425, Sigma, 1/1000), PAK (SC-881, Santa Cruz, 1/200), p130cas/BCAR1 (SC-860, Santa Cruz, 1/200), actin (Cell Signaling Technology, 1/2000), anti-mouse HRP (Cell Signaling Technology, 1/10,000) and anti-rabbit HRP (Cell Signaling Technology, 1/10,000). The quantification of the WB signals was performed with the Amersham Imager 600 analysis software (GE Healthcare). […]\nC, WB comparing expression levels of selected Abp1 SH3 mutants with WT Abp1. An asterisk represents a stop codon, which inhibits translation of the 1xFLAG epitope. D, Quantification of the relative level of expression of Abp1 SH3 mutants by WB as in C, (log2 of Abp1 SH3 mutant/Abp1 WT ratio, WB relative level of expression of 0 for WT Abp1) compared to their DMS scores (Hua2 (left): Pearson’s r = -0.34, p-value = 0.46, Lsb3 […]\n(right): Pearson’s r = -0.81, p-value = 0.03). […]\nMost […]\ninterface residues sensitive to mutations, such as Y7, E13, E16, V3 1, D32, D34, L48 and Y53, specifically affect Hua2 PPI. See also Supplementary Table 4."}, "Hua2 [2]": {"test_system": "Hua2", "test": "Low-throughput liquid DHFR-PCA of selected Abp1 SH3 mutants (Fig. S3F)", "conditions": "average", "description": "Liquid DHFR-PCA low-throughput experiments were performed to validate the PPIs identified as affected by the SH3 domain deletions in the high-throughput solid DHFR-PCA screen (256 PPIs weaker or lost and 116 PPIs stronger or gained following domain deletions). Mating and the diploid selection were performed as described for the large-scale experiment, with the exception that the plates were in 384 formats. Following the second diploid selection, diploid cells were inoculated in a 96 v-shaped well plate using a robotically manipulated 96 pin tool in a synthetic complete medium with MSG at pH 6.0 with NAT and HPH. After 48 h of growth, optical density (OD) was read using a TECAN Infinite F200 Pro, and dilutions to 1 OD in sterile nanopure water were prepared. Cells were then diluted to 0.1 OD by combining 25 µl of cell suspension at OD = 1 and 225 µl of PCA selection media without agar in a 96-wells plate. Plates were incubated at 30 °C in a TECAN Infinite M Nano and OD was monitored each 15 min for 72 h. […]\nSelected non-conserved positions (E6 , E13, N15 and N27) sensitivities to mutations for the Abp1-Hua2 PPI were tested in a low -throughput liquid DHFR -PCA assay. The growth of the mutants in the low -throughput experiment (average of four replicates of the total OD for each growth curve, y axis ) is compared to the mutants DMS score (x axis). […]"}, "[3]": {"test_system": "growth of ABP1 SH3-swapped strains in hygromycin B", "test": "Hygromycin B resistance assay in liquid culture (Fig. S2E)", "conditions": "37 °C, 24 h, n = 3", "description": "For the hygromycin B resistance assays in liquid cultures, the ABP1 SH3 swapped strains including the ABP1 SH3-deleted and ABP1 KO strain were grown overnight at 30 °C as precultures in synthetic complete medium with MSG. The next day, OD was measured with a TECAN Infinite F200 Pro plate reader, and the cultures were diluted to OD of 1.0 in sterile nanopure water. The different strains were further diluted at 0.1 OD by adding 25 µl of cultures to 225 µl of synthetic complete medium with MSG or with MSG and Hygromycin B 120 µg/mL in 96 wells plate (final concentration of 108 µg/mL). Cells were incubated in a TECAN Infinite M Nano plate reader at 37 °C for 24 h and OD was measured every 15 min."}, "Abp1 PPIs": {"test_system": "Abp1 PPIs", "test": "DHFR-PCA of Abp1 SH3-swapped baits (Fig. 2B-D, S2C, S2F)", "conditions": "DHFR-PCA, quadruplicate", "outline": "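Interactions were scored by DHFR protein-fragment complementation. DHFR F[1,2]-tagged Abp1 strains, whose SH3 was swapped for yeast or human ortholog domains, were crossed on YPD at 30 °C for 48 h with a 1536-format array of 575 prey-DHFR F[3] strains and 40 negatives, giving four replicates per pair. PCA selection lasted 4 days after double diploid selection.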"}}, "data": [{"molecule": "B1", "values": [{"measurement": "quadrant", "setting": "Hua2 and Lsb3", "result": "Neutral"}, {"measurement": "LSB3_MTX2 = frequencies normalized to the reference condition", "setting": "Lsb3; Lsb3, MTX2, amino acid format", "result": 1.916}, {"measurement": "lsb3sc = Frequencies scaled to the synonymous mutation distribution (DMS score)", "setting": "Lsb3; Lsb3, scaled to the synonymous mutation distribution", "result": 0.4157}, {"measurement": "HUA2_MTX2 = frequencies normalized to the reference condition", "setting": "Hua2 [1]; Hua2, MTX2, amino acid format", "result": 1.852}, {"measurement": "hua2sc = Frequencies scaled to the synonymous mutation distribution (DMS score)", "setting": "Hua2 [1]; Hua2, scaled to the synonymous mutation distribution", "result": 0.2394}]}, {"molecule": "B2", "values": [{"measurement": "Ratio Mutant/WT Flag", "setting": "Abp1 (1xFLAG); Western blot Flag signal of mutant relative to WT", "result": 0.6362}, {"measurement": "Flag (2 bands)", "setting": "Abp1 (1xFLAG); Western blot, Flag signal, 2 bands", "result": 23257}, {"measurement": "DMS score Lsb3", "setting": "Lsb3; Abp1-Lsb3 DHFR-PCA, WT = 0, Fig. S3C-D", "result": -0.3311}, {"measurement": "DMS score Hua2", "setting": "Hua2 [1]; Abp1-Hua2 DHFR-PCA, WT = 0, Fig. S3C-D", "result": -0.2784}, {"measurement": "DMS Score", "setting": "Hua2 [1]; condition HUA2_MTX2, amino acid mutation format, Fig. S3F", "result": 1.334}, {"measurement": "ave_au (DMS validation)", "setting": "Hua2 [2]", "result": 78.0323, "unit": "au"}]}, {"molecule": "B3", "values": [{"measurement": "Hygromycin phenotype", "setting": "[3]", "result": "fully reproduces WT sensitivity"}, {"measurement": "Kendall's τ of PPI profile with WT Abp1", "setting": "Abp1 PPIs", "result": 0.93}]}]}
